B1: gp80 (receptor, human, UniProt P08887 20-358, looked up)
chain: LAPRRCPAQEVARGVLTSLPGDSVTLTCPGVEPEDNATVHWVLRKPAAGSHPSRWAGMGRRLLLRSVQLHDSGNYSCYRAGRPAGTVHLLVDVPPEEPQLSCFRKSPLSNVVCEWGPRSTPSLTTKAVLLVRKFQNSPAEDFQEPCQYSQESQKFSCQLAVPEGDSSFYIVSMCVASSVGSKFSKTQTFQGCGILQPDPPANITVTAVARNPRWLSVTWQDPHSWNSSFYRLRFELRYRAERSKTFTTWMVKDLQHHCVIHDAWSGLRHVVQLRAQEEFGQGEWSEWSPEAMGTPWTESRSPPAENEVSTPMQALTTNKDDDNILFRDSANATSLPVQD
notes: Soluble gp80 as used in ELISA, MST, Octet, SEC and SPR; In part of the ELISA work the methods name gp80-hscFc (gp80 M1-P322, C211A, C277A, fused to single chain human IgG Fc); also called IL-6 receptor; CD126

Assays:
[1] = biological target: T1, IL-6 (human, UniProt P05231 28-212); assay: ELISA, plate coated with IL-6, absorbance 630 nm
T1 construct: IL-6 as used in ELISA, MST, Octet, SEC and SPR; also called interleukin-6; hIL-6
Method: ELISA—IL-6, gp80 and FusionIL-6 used in ELISA to coat plates were diluted to a final concentration of […] in carbonate buffer (0.16% Na₂CO₃ and 0.3% NaHCO₃ in H₂O). Coated plates were incubated at 4° C. overnight. The following day, the plates were washed twice in PBST, blocked in PBS/5% BSA for 2 h at RT, and again washed twice in PBST. For preliminary screening, either supernatant from HEK cells or purified VHHs was added. Anti-llama-HRP or anti-His-HRP antibody was added for 1 h at RT. Afterwards the plates were washed twice with PBST and developed with TMB substrate. The reaction was stopped by adding NaF. […]

[2] = biological target: B1; assay: ELISA, plate coated with gp80, absorbance 630 nm
[3] = biological target: T2, IL-6-gp80 complex (human, UniProt P05231 28-212; P08887 20-358); assay: SPR (BIAcore T200, 25 C), VHH6 immobilised, IL-6 titrated (0-250 nM) with gp80 constant at 2 uM
T2 construct: Non-covalent transient heterodimer formed by mixing IL-6 and gp80
Method: (§1) Quantitative SPR analysis was carried out using a BIAcore T200 (GE Healthcare). The binding measurements were performed at a flow rate of 100 μl/min. The protein of interest was injected for 180 s and the dissociation was monitored for 360 s. […] The sensor surface was regenerated with […] MgCl₂. Background subtraction binding curves were analyzed using the T200 evaluation software (version 1.0) following standard procedures. Due to the complexity of the interactions studied, the data analysis was limited to the most informative, in this case kd parameter, which was determined by fitting a single exponential decay model to dissociation data within 360 s range.

[4] = biological target: T2, IL-6-gp80 complex; assay: SPR (BIAcore T200, 25 C), VHH6 immobilised, gp80 titrated (0-250 nM) with IL-6 constant at 2 uM
Method: as §1

[5] = biological target: T2, IL-6-gp80 complex; assay: MicroScale Thermophoresis, VHH6 titrated into IL-6-NT647 + gp80 (panel IL-6-NT647+gp80+VHH6)
Text: (§2) (a) ELISA: FusionIL-6, IL-6 or gp80 were immobilized overnight on plates. […] (b) MicroScale Thermophoresis (MST): IL-6 and gp80 were labelled with NT647.

[6] = biological target: T2, IL-6-gp80 complex; assay: MicroScale Thermophoresis, VHH6 titrated into gp80-NT647 + IL-6 (panel gp80-NT647+IL-6+VHH6)
Text: as §2

[7] = biological target: T2, IL-6-gp80 complex; assay: SPR (BIAcore 3000), His-tagged VHH captured from supernatant on Ni-NTA chip, equimolar IL-6 + gp80 (50 nM each) injected
Method: (§3) SPR analysis was performed using a BIAcore 3000 (GE Healthcare). […] An equimolar mixture of IL-6 and gp80 (50 nM each) was injected for 300 s at a flow rate of 10 μl/min followed by a dissociation phase of 300 s. At the end of each cycle the chip surface was regenerated by injection of 350 mM EDTA (2×10 μl).
(§4) To assess the contributions of the side chains to binding, single alanine substitutions at positions 27, 32, 74, 101 and 113, and double alanine substitutions at positions 27/32, 74/101 and 113/101 were generated. […] In a three-component system, it is not possible to calculate meaningful association rate constants. However, the dissociation rate constants, being concentration independent, were determined.

[8] = biological target: T2, IL-6-gp80 complex; assay: as above; remark: listed apart in the source
Method: as §3, §4

[9] = biological target: T2, IL-6-gp80 complex; assay: SPR, VHH captured on Ni-NTA chip, IL-6 + gp80 injected; reference VHH6
Method: as §3, §4

[10] = biological target: T1, IL-6; assay: SPR, IL-6 immobilised, gp80 injected, with VHH6 against without VHH6
Text: For brevity, FIGS. 10a and b only report the SPR sensorgrams for IL-6 immobilization.

Row | Binder | koff [7] [s⁻¹] | koff [8] [s⁻¹] | other results
1 | VHH6 (VHH, Camel single domain antibody expressed in Expi-HEK cells; The His tag was used for capture in Octet and in the NTA-chip SPR; also called wtVHH6; VHH6-6His; not shown: C-terminal TEV site and 6His tag (VHH6-6His)) VHH: DVQFVESGGGSVHAGGSLRLNCATSGYIYSTYCMGWFRQAPGKEREGVAHIYTNSGRTYYADSVKGRFTISQDNAKNTVYLQMNSLKPEDTAIYYCAARPSIRCASFSATEYKDWGQGTQVTVSS | 0.00036 | 0.00036 | binding result [1]: no binding; binding result [2]: no binding; koff [3]: 0.000309 s⁻¹; koff [4]: 0.000375 s⁻¹; EC50 (read off the curve) [5]: ~30 nM; EC50 (read off the curve) [6]: ~60 nM
2 | VHH6 S101A (VHH, Tested as ExpiHEK supernatant; not shown: C-terminal His tag (captured on NTA chip)) VHH: DVQFVESGGGSVHAGGSLRLNCATSGYIYSTYCMGWFRQAPGKEREGVAHIYTNSGRTYYADSVKGRFTISQDNAKNTVYLQMNSLKPEDTAIYYCAARPAIRCASFSATEYKDWGQGTQVTVSS | 0.00039 |  | 
3 | VHH6 K113S S101A (VHH, The text describes only alanine substitutions; not shown: C-terminal His tag (captured on NTA chip)) VHH: DVQFVESGGGSVHAGGSLRLNCATSGYIYSTYCMGWFRQAPGKEREGVAHIYTNSGRTYYADSVKGRFTISQDNAKNTVYLQMNSLKPEDTAIYYCAARPAIRCASFSATEYSDWGQGTQVTVSS |  | 0.00164 | 
4 | VHH6 Y27A (VHH, Tested as ExpiHEK supernatant; not shown: C-terminal His tag (captured on NTA chip)) VHH: DVQFVESGGGSVHAGGSLRLNCATSGAIYSTYCMGWFRQAPGKEREGVAHIYTNSGRTYYADSVKGRFTISQDNAKNTVYLQMNSLKPEDTAIYYCAARPSIRCASFSATEYKDWGQGTQVTVSS | 0.0007 |  | fold increase of dissociation rate against VHH6 [9]: 1.9 fold
5 | VHH6 Y32A (VHH, Tested as ExpiHEK supernatant; not shown: C-terminal His tag (captured on NTA chip)) VHH: DVQFVESGGGSVHAGGSLRLNCATSGYIYSTACMGWFRQAPGKEREGVAHIYTNSGRTYYADSVKGRFTISQDNAKNTVYLQMNSLKPEDTAIYYCAARPSIRCASFSATEYKDWGQGTQVTVSS | 0.0003 |  | 
6 | VHH6 K113A S101A (VHH, Tested as ExpiHEK supernatant; also called Ser101Ala/Lys113Ala; 113/101 double mutant; not shown: C-terminal His tag (captured on NTA chip)) VHH: DVQFVESGGGSVHAGGSLRLNCATSGYIYSTYCMGWFRQAPGKEREGVAHIYTNSGRTYYADSVKGRFTISQDNAKNTVYLQMNSLKPEDTAIYYCAARPAIRCASFSATEYADWGQGTQVTVSS |  | 0.00143 | fold increase of dissociation rate against VHH6 [9]: 4.3 fold
7 | VHH6 N74A S101A (VHH, Tested as ExpiHEK supernatant; also called Asn74Ala/Ser101Ala; 74/101 double mutant; not shown: C-terminal His tag (captured on NTA chip)) VHH: DVQFVESGGGSVHAGGSLRLNCATSGYIYSTYCMGWFRQAPGKEREGVAHIYTNSGRTYYADSVKGRFTISQDAAKNTVYLQMNSLKPEDTAIYYCAARPAIRCASFSATEYKDWGQGTQVTVSS |  | 0.00135 | fold increase of dissociation rate against VHH6 [9]: 3.8 fold
8 | VHH6 Y27A Y32A (VHH, Tested as ExpiHEK supernatant; also called 27/32 double mutant; not shown: C-terminal His tag (captured on NTA chip)) VHH: DVQFVESGGGSVHAGGSLRLNCATSGAIYSTACMGWFRQAPGKEREGVAHIYTNSGRTYYADSVKGRFTISQDNAKNTVYLQMNSLKPEDTAIYYCAARPSIRCASFSATEYKDWGQGTQVTVSS |  | 0.00043 | 
9 | VHH6 N74A (VHH, Tested as ExpiHEK supernatant; not shown: C-terminal His tag (captured on NTA chip)) VHH: DVQFVESGGGSVHAGGSLRLNCATSGYIYSTYCMGWFRQAPGKEREGVAHIYTNSGRTYYADSVKGRFTISQDAAKNTVYLQMNSLKPEDTAIYYCAARPSIRCASFSATEYKDWGQGTQVTVSS | 0.00015 |  | 
10 | VHH6 K113A (VHH, Tested as ExpiHEK supernatant; not shown: C-terminal His tag (captured on NTA chip)) VHH: DVQFVESGGGSVHAGGSLRLNCATSGYIYSTYCMGWFRQAPGKEREGVAHIYTNSGRTYYADSVKGRFTISQDNAKNTVYLQMNSLKPEDTAIYYCAARPSIRCASFSATEYADWGQGTQVTVSS | 0.00026 |  | 
11 | B1 |  |  | fold reduction of koff by VHH6 [10]: 225 fold

— patent publication US20210301012A1 (UCB, published 2021)
